Data reported in PMC4805248.

Experiments:
[1] = target: T1, PgMntR (Porphyromonas gingivalis W50 (W83 locus PG1044)) (UniProt Q7MVL0); assay: EMSA; conditions: EMSA: 1 nM biotinylated DNA, 700-1000 nM protein, 90 mM Bis-Tris borate pH 6.8 (1 mM TCEP, 5 mM DTT) or 10 mM Tris-Cl pH 7.5 or Tris-acetate pH 6.8, 50 mM KCl …
T1 sequence: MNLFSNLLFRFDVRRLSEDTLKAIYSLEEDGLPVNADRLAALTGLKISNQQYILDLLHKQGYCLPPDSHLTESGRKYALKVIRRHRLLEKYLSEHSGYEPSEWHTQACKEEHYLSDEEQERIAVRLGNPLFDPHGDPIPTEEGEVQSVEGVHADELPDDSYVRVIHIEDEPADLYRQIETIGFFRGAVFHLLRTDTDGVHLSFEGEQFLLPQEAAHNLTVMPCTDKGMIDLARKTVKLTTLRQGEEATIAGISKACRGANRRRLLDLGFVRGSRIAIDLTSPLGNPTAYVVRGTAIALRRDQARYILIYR

[2] = target: PgMntR 4Ala variant (D19A/C108A/E111A/H112A) (Porphyromonas gingivalis W50); assay: AUC; sedimentation velocity; 10 or 60 uM protein in TBS (50 mM Tris-Cl, 150 mM NaCl, pH 7.5), 20 C, 40,000 rpm; without divalent metal, also with Mn2+ and with 2 mM TCEP; c(s) fit in SEDFIT
[3] = target: PgMntR (Porphyromonas gingivalis manganese transport regulator orthologue, PG1044), recombinant wild type (Porphyromonas gingivalis W50); assay: as above
[4] = target: PgMntR C108E variant (Porphyromonas gingivalis W50); assay: as above
[5] = target: PgMntR D19M variant (Porphyromonas gingivalis W50); assay: as above
[6] = target: PgMntR ΔFeoA2 (PgMntR without the final C-terminal FeoA domain) (Porphyromonas gingivalis W50); assay: as above

**Q.** For “GATAGCGCAAAAATACTAACTAAACCAATGAATAAACGAGAAATACAATTTATTATTAAAGAGACTGTTGCACAATAACCCTCTCCCCCTCTCATATTGATCAAGACAGACACAAGCATTGATTTGACGAAGAAAGGAGAGCTTCATGCAATCTCTCTGCAAACCTCAAGTAATCTGAAAAACACTTAAGAATCAGCTCTGCGGCAAAAGACTTCAATGAAAGTCCTATAAAATAGTTGCAAACAGCTGATAGTTAGCGCATTGATGGGAGC (double strand) [FB1p (feoB1 promoter)]”, which binding [1] is on record?
**A.** no binding

**Q.** For “PgMntR 4Ala variant (D19A/C108A/E111A/H112A) (natural protein)”, which stoichiometry N [2] is on record?
**A.** 2

**Q.** For “PgMntR (Porphyromonas gingivalis manganese transport regulator orthologue, PG1044), recombinant wild type (natural protein)”, which stoichiometry N [3] is on record?
**A.** 2

**Q.** PgMntR C108E variant (natural protein) was tested. Which stoichiometry N [4] did it give?
**A.** 2

**Q.** For PgMntR D19M variant (natural protein), which stoichiometry N [5] is on record?
**A.** 2

**Q.** How did the stoichiometry N [6] turn out when “PgMntR ΔFeoA2 (PgMntR without the final C-terminal FeoA domain) (domain or fragment)” was run?
**A.** 2
